Experiments:
[1] = hPEPD-degrading activity of mouse plasma samples; assay type: in vitro ADME
Procedure: Measurement of in vitro degradation of hPEPD, mSRC and hAβ1-42. To determine whether a blood coagulation factor degrades hPEPD, hPEPD at 90 nM or lower concentrations (10 or 40 nM) was incubated with solvent, 100 nM FIIa, 100 nM FXa, 10 nM FVIIa with or without 10 nM TF, or 10 nM FVII with or without 10 nM TF and/or 100 nM FIIa in PBS in a total volume of 100 μl containing 5 mM CaCl2 for desired times at RT. […] To compare the hPEPD-degrading activities of different plasma samples, 9.2 pmol of hPEPD was incubated with 100 μl of plasma from WT mice or FVII^tTA/tTA mice at RT, with or without FIIa or FXa (10 pmol), and to maximize detection of any activity, all incubations lasted for 24 h. […] Although some clotting activity may take place before and during centrifugation of the blood sample, our experiments indicate that activation of coagulation factors, e.g., FVII, is very limited (see FIG. 5A). To measure remaining hPEPD, the incubated samples were cleared of potential fibrin clots by centrifugation and then analyzed by SDS-PAGE and silver staining (using the LC 6070 kit from Invitrogen), IB or measurement of hPEPD enzymatic activity. hPEPD enzymatic activity was measured using glycyl-proline as a substrate (as described in Zbucka et al., Folia Histochem Cytobiol 2007; 45 Suppl 1: S181-185). The precipitates from each incubated sample were washed with PBS twice and then resuspended in 2.5% SDS (20 μper sample); each solution was mixed with 10 μl loading dye and analyzed for hPEPD by IB, using pure hPEPD as a standard and factor FXIIIa as a binding control, respectively.
To measure degradation of hPEPD in plasma samples with or without removal of FVII and FVIIa, plasma samples from WT mice as described above were either used directly or immunodepleted of FVII and FVIIa before use. To remove FVII and FVIIa from plasma, 500 μl plasma was incubated with an antibody specific for FVII/FVIIa (GTX79785; 10 μg) and protein A sepharose beads for 1 h at RT. Following centrifugation at 13,000×g for 1 min at 4° C., the supernatant fraction was collected and analyzed by IB to confirm depletion of FVII and FVIIa. Next, 9.2 pmol of hPEPD was incubated with 100 μl of regular plasma or the plasma depleted of FVII/FVIIa, with or without FIIa (10 pmol) for 24 h at RT. Potential fibrin clots formed during the incubation was removed by centrifugation at the end of the incubation, and remaining hPEPD was measured by hPEPD enzymatic activity analysis.

plasma Aβ1-42 = experiment: Plasma Aβ1-42 concentration in mice by ELISA; assay type: in vivo, mouse; settings: FXII−/− mice, CCl4 0.5 g/kg or hPEPD 4 mg/kg i.p., 24 h
Procedure: Animal studies. All animal studies were performed in accordance with protocols approved by the Institutional Animal Care and Use Committee at Roswell Park Cancer Institute. Male mice at 7-8 weeks of age were used, including wild type (WT) mice (C57BL/6), and mice deficient in FXII (C57BL/6-FXII^−/−) or FVII (C57BL/6-FVII^tTA/tTA). WT C57BL/6 mice were purchased from Taconic. C57BL/6-FXII^−/− mice and C57BL/6-FVII^tTA/tTA mice were bred in our own facility and genotyped. […] CCl4 was dissolved in corn oil, whereas all other substances were dissolved in PBS. The vehicle or the test substance was given to mice in 0.1 ml volume per 20 g body weight. Blood was collected from the mice at specific times by cardiac puncture at the time of sacrifice by carbon dioxide, and heart, liver and kidney were also collected from some of the mice. Blood was collected into K3 EDTA-containing tubes (Multivette 600 from Sarstedt), unless specified otherwise. All blood samples were promptly centrifuged to obtain plasma samples.
Measurement of plasma levels of PEPD, SRC, Aβ1-42 and FI. […] The plates were washed three times with phosphate buffered saline tween-20 (PBST) and the coated wells were blocked by incubation with 200 μl/well of 1% BSA in PBS for at least 2 h at RT. After another round of wash with PBST, the plates were incubated with appropriately diluted Aβ1-42 standard, SRC standard or plasma samples (100 μl/well) for 2 h at RT. The plates were then washed with PBST and incubated with an anti-Aβ1-42 rabbit polyclonal antibody (sc-9129) or anti-SRC rabbit monoclonal antibody (2123) at 100 μl/well for 2 h at RT. The plates were washed again with PBST, and each well was incubated with a goat anti-rabbit IgG-HRP conjugate (100 μl) for 1 h at RT. After yet another round of wash with PBST, each well was incubated with 100 μl of HRP substrate 3,3′,5,5′-tetramethylbenzedine (Cell Signaling, 7004). Upon adequate color development, 100 μl of stop solution (Cell Signaling, 7002) was added to each well, and absorbance at 450 nm was promptly recorded by a microtiter plate reader.

ERBB1 and ERBB2 = experiment: Tissue levels and phosphorylation of ERBB1 and ERBB2 by IB; assay type: in vivo, mouse; settings: CCl4 0.5 g/kg or hPEPD 4 mg/kg i.p., 24 h
Procedure: Animal studies. All animal studies were performed in accordance with protocols approved by the Institutional Animal Care and Use Committee at Roswell Park Cancer Institute. Male mice at 7-8 weeks of age were used, including wild type (WT) mice (C57BL/6), and mice deficient in FXII (C57BL/6-FXII^−/−) or FVII (C57BL/6-FVII^tTA/tTA). WT C57BL/6 mice were purchased from Taconic. C57BL/6-FXII^−/− mice and C57BL/6-FVII^tTA/tTA mice were bred in our own facility and genotyped. The breeders were kindly provided by Dr. Francis J. Castellino at University of Notre Dame. […] CCl4 was dissolved in corn oil, whereas all other substances were dissolved in PBS. The vehicle or the test substance was given to mice in 0.1 ml volume per 20 g body weight. Blood was collected from the mice at specific times by cardiac puncture at the time of sacrifice by carbon dioxide, and heart, liver and kidney were also collected from some of the mice. Blood was collected into K3 EDTA-containing tubes (Multivette 600 from Sarstedt), unless specified otherwise. All blood samples were promptly centrifuged to obtain plasma samples.
IB. […] Protein concentrations in all samples were measured by the BCA assay kit. […] The proteins were transferred to polyvinylidene fluoride membrane, probed with specific antibodies and detected using the ECL Plus Kit (Amersham) or the SuperSignal West Pico Kit (Thermo Scientific).

B1: hPEPD: recombinant human prolidase (PEPD), 6xHis tagged to the carboxy terminus (protein, UniProt P12955 2-493, looked up)
Xaa-Pro dipeptidase: AAATGPSFWLGNETLKVPLALFALNRQRLCERLRKNPAVQAGSIVVLQGGEETQRYCTDTGVLFRQESFFHWAFGVTEPGCYGVIDVDTGKSTLFVPRLPASHATWMGKIHSKEHFKEKYAVDDVQYVDEIASVLTSQKPSVLLTLRGVNTDSGSVCREASFDGISKFEVNNTILHPEIVECRVFKTDMELEVLRYTNKISSEAHREVMKAVKVGMKEYELESLFEHYCYSRGGMRHSSYTCICGSGENSAVLHYGHAGAPNDRTIQNGDMCLFDMGGEYYCFASDITCSFPANGKFTADQKAVYEAVLRSSRAVMGAMKPGVWWPDMHRLADRIHLEELAHMGILSGSVDAMVQAHLGAVFMPHGLGHFLGIDVHDVGGYPEGVERIDEPGLRSLRTARHLQPGMVLTVEPGIYFIDHLLDEALADPARASFLNREVLQRFRGFGGVRIEEDVVVTDSGIELLTCVPRTVEEIEACMAGCDKAFTPFSGPK
modifications: C-terminal 6xHis tag
notes: recombinant human prolidase (PEPD), 6xHis tagged to the carboxy terminus
For B1, the “hPEPD degradation in plasma after adding human FIIa or FXa” value ([1]; FVII tTA/tTA plasma) was “neither factor was effective”, the “hPEPD degradation after incubation with plasma” value ([1]; FVII tTA/tTA plasma, 24 h, RT) was “no degradation of hPEPD could be detected” and the “hPEPD degradation in plasma after adding human FIIa or FXa” value ([1]; WT plasma) was “markedly enhanced hPEPD degradation”. The “hPEPD remained after incubation with plasma” value ([1]; WT plasma, 24 h, RT) was 88.8%, the “hPEPD degradation in plasma after removal of FVII/FVIIa by immunodepletion” value ([1]; WT plasma, with or without FIIa) was “abolished the residual hPEPD degradation or FIIa-enabled hPEPD degradation” and the “average plasma level of mAβ1-42, increase” value (plasma Aβ1-42) was “remained unchanged”. For the same molecule, the “changes in ERBB1/ERBB2 tyrosine phosphorylation and receptor depletion in heart, kidney and liver, WT mice compared to FXII−/− mice” value (ERBB1 and ERBB2) was “reduced changes in receptor tyrosine phosphorylation”.
